One protein from article PMC8099091, “Heterogeneous multimeric structure of isocitrate lyase in complex with succinate and itaconate provides novel insights into its inhibitory mechanism” (PLoS ONE, 2021) can be followed below.

The data set deals with the molecule itself. In words: SEC-MALS; Superdex 200 Increase 10/300 GL, 20 mM Tris-HCl pH 8.0, 150 mM NaCl, 0.4 mL/min, 20°C; repeated under various conditions with the same results.

B1: isocitrate lyase from Mycobacterium tuberculosis (tbICL) (enzyme)
chain: MSVVGTPKSAEQIQQEWDTNPRWKDVTRTYSAEDVVALQGSVVEEHTLARRGAEVLWEQLHDLEWVNALGALTGNMAVQQVRAGLKAIYLSGWQVAGDANLSGHTYPDQSLYPANSVPQVVRRINNALQRADQIAKIEGDTSVENWLAPIVADGEAGFGGALNVYELQKALIAAGVAGSHWEDQLASEKKCGHLGGKVLIPTQQHIRTLTSARLAADVADVPTVVIARTDAEAATLITSDVDERDQPFITGERTREGFYRTKNGIEPCIARAKAYAPFADLIWMETGTPDLEAARQFSEAVKAEYPDQMLAYNCSPSFNWKKHLDDATIAKFQKELAAMGFKFQFITLAGFHALNYSMFDLAYGYAQNQMSAYVELQEREFAAEERGYTATKHQREVGAGYFDRIATTVDPNSSTTALTGSTEEGQFH
notes: Tetramer in solution by SEC-MALS; dimer (subunits A and B) in the asymmetric unit, tetramer by twofold crystal symmetry; Theoretical monomer mass 47.08 kDa including the C-terminal His-tag; also called tbICL1; isocitrate lyase isoform 1; not shown: His-tag, C-terminal, kept
Usually stoichiometry N stands for a count of units in the complex or per binding partner. B1: the “stoichiometry N” value was 4.
